The values below come from patent US20220275390A1, “RUBISCO-BINDING PROTEIN MOTIFS AND USES THEREOF” (The Trustees of Princeton University, priority 2019, published 2022).

Residue numbers refer to the chain shown, from its start. In names and notes the source's numbering stands.

One assay concerns EPYC1. The experiment in a line: Yeast two-hybrid assay of EPYC1 with Rubisco SSU variants. The assay is classed as cell-based, Chlamydomonas reinhardtii. The conditions noted are these: growth on SD-L-W-H with 3-AT, three days, FIGS. 9A-9C. The text has this:
FIGS. 9A-9C show the results of a yeast two-hybrid (Y2H) assay to measure the interaction between EPYC1 and Rubisco SSU variants. […] The images shown were taken following three days of cell growth. The Rubisco SSU residues that form salt bridges with EPYC1 residues are bolded (D23, E24, and R91) and the residues that form the hydrophobic pocket with EPYC1 residues are bolded and italicized (M87 and V94). The “Control” images were taken from cells grown for three days on SD-L-W media and the “Test” images were taken from cells grown for three days on SD-L-W-H with 3-AT. Growth of yeast cells expressing the indicated EPYC1 and Rubisco SSU variants was measured after three days on SD-L-W-H with varying 3-AT concentrations. The highest concentration of 3-AT (0, 1, 2.5, 5, 10, and 20 mM) permissive for the growth of each EPYC1 and Rubisco SSU variant combination is shown, as indicated in the “Key” on the right.
Mutagenesis of EPYC1, Mutagenesis of Rubisco, Yeast Two-hybrid, Peptide Arrays and SPR Assays To determine the importance of individual EPYC1 residues for binding to Rubisco, the impact on Rubisco binding of every possible single amino acid substitution for EPYC1 RBM 2 was determined (FIG. 8). To determine the importance of individual Rubisco residues for binding to EPYC1, targeted mutations of the amino acids identified from atomic modeling were tested in a yeast two-hybrid assay as in van Nues and Beggs (Genetics 157: 1451-1467, 2000). Peptide arrays and SPR assays were performed as in Example 1.

In the next assay the test system is C. reinhardtii cells. The experiment in a line: Confocal fluorescence microscopy localization of Venus fusion proteins. The assay is classed as cell-based, Chlamydomonas reinhardtii. The conditions noted are these: Venus fluorescence in C. reinhardtii cells. The text has this:
A synthetic […] (Invitrogen) containing a 643 bp restriction fragment containing the C-terminus of Venus, followed by the sequence coding for the FLAG-tag sequence, and a sequence coding for three repetitions of the 15 C-terminal amino acids of SAGA2, was cloned into pLM005-FDX1, after restriction digestion with EcoRl and PfIMI. GenBank accession number of the empty pLM005 is KX077945.1. The plasmid pLM005-FDX1 is identical to pLM005 with the genomic sequence of FDX1 cloned in frame by Gibson Assembly (Mackinder et al., PNAS 113: 5958-5963, 2015) between residues 2698 and 3234. The terminal 85 amino acids of resultant mature fusion protein, immediately downstream of the FLAG-tag, were a 5 aa linker (GGGGS; SEQ ID NO: 87), a first copy of SAGA2 15 C-terminal aa, followed by a 10 aa linker (2X GGGGS; SEQ ID NO: 88), a second copy of SAGA2 15 last aa, another 10 aa linker (2X GGGGS; SEQ ID NO: 88), and finally a third copy of SAGA2 15 last aa. The sequence of the EcoRI-PfIMI digestion fragment (SEQ ID NO: 89) was cloned in frame into pLM005-FDX1.
Culturing and Transformation of C. reinhardtii: Culturing and transformation of C. reinhardtii for fluorescence localization of protein and imaging was performed as described in Mackinder et al. (PNAS 113: 5958-5963, 2015). […]

B1: D23A: C. reinhardtii Rubisco SSU with mutation D23A (protein)
chain: MMVWTPVNNKMFETFSYLPPLTAEQIAAQVDYIVANGWIPCLEFAEADKAYVSNESAIRFGSVSCLYYDNRYWTMWKLPMFGCRDPMQVLREIVACTKAFPDAYVRLVAFDNQKQVQIMGFLVQRPKTARDFQPANKRSV
modifications: left off: small tags and cut ends
As to B1, the “Rubisco SSU-EPYC1 interaction” value with EPYC1 is recorded as “severe impact”.

B2: E24A: C. reinhardtii Rubisco SSU with mutation E24A (protein, UniProt P00873 46-185, looked up, variant E24A)
Ribulose bisphosphate …: B1 chain with A23D, E24A
Regarding B2, the “Rubisco SSU-EPYC1 interaction” value in the assay with EPYC1 is listed as “moderate defect”.

B3: M87D: C. reinhardtii Rubisco SSU with mutation M87D (protein, UniProt P00873 46-185, looked up, variant M87D)
Ribulose bisphosphate …: B1 chain with A23D, M87D
Take B3: the “Rubisco SSU-EPYC1 interaction” value in the assay with EPYC1 is listed as “severe impact”.

B4: V94D: C. reinhardtii Rubisco SSU with mutation V94D (protein, UniProt P00873 46-185, looked up, variant V94D)
Ribulose bisphosphate …: B1 chain with A23D, V94D
For the molecule B4, the “Rubisco SSU-EPYC1 interaction” value in the assay with EPYC1 is reported as “severe impact”.

B5: R91A: C. reinhardtii Rubisco SSU with mutation R91A (protein, UniProt P00873 46-185, looked up, variant R91A)
Ribulose bisphosphate …: B1 chain with A23D, R91A
As for B5, in the assay with EPYC1, the “Rubisco SSU-EPYC1 interaction” value is reported as “moderate defect”.

B6: RBM P1-Venus: Rubisco-Binding Membrane Protein 1 (SEQ ID NO: 1) fused to the Venus fluorescent protein (protein)
chain: MQCQLKHGARPQSQRPNWLPARAATLRPAVQHGVRRGLTLGVKAAAAPLEDKKMPADMTTRQYRRVVYDFALWAKHRDVNRYLYNLRTIPGSRIIRQLSQPMGVVLAWAALFGFYETCLEAGVLPSYLPKMTLMSAEPQGLTSFALSLLLVFRTNSSYGRFDEARKIWGGILNRARNIANQAVTFIPAEDQAGREAVGKWTVGFTRALQAHLQEDIDLRKELEKATPRWSKEEIDMLVNAQHRPIKAISVLSELTRQLSITQFQALQMQENCTFFYDALGGCERLLRTPIPVSYTRHTARFLTIWLAMLPLGLWERYHWSMLPVIALIGFLLLGIDEIGISIEEPFGILPLDAICGRAQTDVNSLLKEDPAVMKYVDDVRSGRVKSPPPLPPAPAAPAAAAAAAAAAARSVSPQPDVAKTLGSLFTNVRAGVGAVAPGAPLMPQAPVRSPSPTRSVSPSFPRASAGTGMPPPVGMNGATPRVAAAPPTPPPVSRPAAPAAAPAAGSGFTMPNFSASLSGLTGGAAAAAKSAADAASSKLTKMADSMSSGAAAPAPPAAPARPSTSPRPSASSPISSSADADRSDSSRRPVNWRDELQSLKATREPNGNGNGSGVAPAAGRADADEEALRRFGNLAGRSRSGNGGGGSSDTELSEANRPRTRPDWRNQL
Turning to B6, the “localization pattern within the pyrenoid” value in the assay on C. reinhardtii cells (FIG. 15) was “limited to an inner sphere of the Rubisco matrix”. Also, the localization result with C. reinhardtii cells (FIGS. 14B and 15) is given as “localized to the pyrenoid”.
